Reference: US20230002496A1 (STAIDSON BEIJING BIOPHARMACEUTICALS, published 2023)

T1: human GM-CSFRα-6His (human, UniProt P15509 23-320)
T1 construct: pTT5-GMRa-6his (ECD), made in 293F cells; also called GMRah; GMRa-6his(ECD)
T1 sequence: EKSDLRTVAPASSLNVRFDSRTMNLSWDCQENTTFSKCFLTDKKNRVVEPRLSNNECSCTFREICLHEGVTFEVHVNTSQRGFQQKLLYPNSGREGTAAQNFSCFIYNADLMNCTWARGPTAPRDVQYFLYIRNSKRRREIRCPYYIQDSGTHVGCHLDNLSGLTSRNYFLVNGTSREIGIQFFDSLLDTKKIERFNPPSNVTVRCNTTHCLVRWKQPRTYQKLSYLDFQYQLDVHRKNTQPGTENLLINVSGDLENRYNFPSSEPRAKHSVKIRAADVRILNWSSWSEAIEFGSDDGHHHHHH

T2: human GM-CSFRα, full length on cells (human, UniProt P15509 23-400)
T2 sequence: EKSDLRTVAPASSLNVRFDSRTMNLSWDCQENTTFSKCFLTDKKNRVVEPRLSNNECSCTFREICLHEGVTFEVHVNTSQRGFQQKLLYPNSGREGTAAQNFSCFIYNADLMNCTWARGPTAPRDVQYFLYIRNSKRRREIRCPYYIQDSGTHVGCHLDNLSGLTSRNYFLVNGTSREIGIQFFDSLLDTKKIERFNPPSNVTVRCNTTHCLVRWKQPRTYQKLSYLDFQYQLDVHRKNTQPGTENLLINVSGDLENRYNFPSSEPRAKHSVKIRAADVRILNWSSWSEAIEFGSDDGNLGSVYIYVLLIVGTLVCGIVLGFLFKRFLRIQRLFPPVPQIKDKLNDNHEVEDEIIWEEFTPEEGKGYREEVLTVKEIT


Key:
[1] = target: T1, human GM-CSFRα-6His; experiment: ELISA on human GM-CSFRα, antibodies as human IgG1; x axis 'Log Ab concentration', no unit
[2] = target: T2, human GM-CSFRα, full length on cells; experiment: cell-based or functional assay

| Binder | binding result [1] | IC50, TF-1 cell proliferation [2] |
| --- | --- | --- |
| E01-IgG1 (antibody, V domains shown, human IgG1, human kappa; also called E1) VH: QMQLVQSGAEVKKPGASVKVSCKVSGHTLTELSIHWVRQAPGKGLEWMGGFDPEDGETNYAQKSQGRVTMTGDTSTDTAYLELSSLRSEDTALYYCATGRYCSTDTCYGFDYWGQGTLVTVSS VL: EIVMTQSPATLSLSPGERATLSCRASQSVSSYLAWYQQKPGQAPRLLIYGASSRATGIPDRFSGSGSGTDFTLTISRLEPEDFAVYYCQQYDNWPPTFGQGTKLEIK | binds |  |
| E35-VH28E-VL30C-IG4 (antibody, IgG4, V domains shown) VH: QMQLVQSGAEVKKPGASVKVSCKVSGYELTELSIHWVRQAPGKGLEWMGGFDPEDGETIYAQKFQGRVTMTGDTSTDTAYLELSSLRSEDTALYYCATGRYTSLATTYGFDYWGQGTLVTVSS VL: EIVMTQSPATLSLSPGERATLSCRASQSVCSYLAWYQQKPGQAPRLLIYGASSRATGIPDRFSGSGSGTDFTLTISRLEPEDFAVYYCQQYDNWPYTFGQGTKLEIK |  | 0.0208 µg/mL |
| E35-VH28H-VL30L-93D-IG4 (antibody, IgG4, V domains shown) VH: QMQLVQSGAEVKKPGASVKVSCKVSGYHLTELSIHWVRQAPGKGLEWMGGFDPEDGETIYAQKFQGRVTMTGDTSTDTAYLELSSLRSEDTALYYCATGRYTSLATTYGFDYWGQGTLVTVSS VL: EIVMTQSPATLSLSPGERATLSCRASQSVLSYLAWYQQKPGQAPRLLIYGASSRATGIPDRFSGSGSGTDFTLTISRLEPEDFAVYYCQQYDDWPYTFGQGTKLEIK |  | 0.0241 µg/mL |
| E84-IgG1 (antibody, V domains shown, human IgG1, human kappa) VH: QMQLVQSGAEVKKPGASVKVSCKVSGYTLTELSMHWVRQAPGKGLEWMGGFDPEDGETIYAQKSQGRVTMTGDTSTDTAYLELSSLRSEDTALYYCATGRYTRGWFNYGFDYWGQGTLVTVSS VL: EIVMTQSPATLSLSPGERATLSCRASQSVSSYLAWYQQKPGQAPRLLIYGASSRATGIPDRFSGSGSGTDFTLTISRLEPEDFAVYYCQQYNNWPYTFGQGTKLEIK | binds |  |

Further lines, results first:

| binding result [1] | IC50, TF-1 cell proliferation [2] | Binder |
| --- | --- | --- |
| binds |  | E31-IgG1 (antibody, V domains shown, human IgG1, human kappa) VH: QMQLVQSGAEVKKPGASVKVSCKVSGYTLTELSIHWVRQAPGKGLEWMGGFDPEDGETIYAQKSQGRVTMTGDTSTDTAYLELSSLRSEDTALYYCATGRYSESFASYGFDYWGQGTLVTVSS VL: EIVMTQSPATLSLSPGERATLSCRASQSVSSYLAWYQQKPGQAPRLLIYGASSRATGIPDRFSGSGSGTDFTLTISRLEPEDFAVYYCQQYDNWPYTFGQGTKLEIK |
| binds |  | E83-IgG1 (antibody, V domains shown, human IgG1, human kappa) VH: QMQLVQSGAEVKKPGASVKVSCKVSGYTLTELSIHWVRQAPGKGLEWMGGFDPEDGETIYAQKSQGRVTMTGDTSTDTAYLELSSLRSEDTALYYCATGRYCFYDLCYGFDYWGQGTLVTVSS VL: EIVMTQSPATLSLSPGERATLSCRASQSVSSYLAWYQQKPGQAPRLLIYGASSRATGIPDRFSGSGSGTDFTLTISRLEPEDFAVYYCQQYSNSPPTFGQGTKLEIK |
| binds |  | E61-IgG1 (antibody, V domains shown, human IgG1, human kappa) VH: QMQLVQSGAEVKKPGASVKVSCKVSGYTLTELSMHWVRQAPGKGLEWMGGFDPEDGETIYAQKFQGRVTMTGDTSTDTAYLELSSLRSEDTALYYCATGRYAWTDIAYGFDYWGQGTLVTVSS VL: EIVMTQSPATLSLSPGERATLSCRASQSVSSYLAWYQQKPGQAPRLLIYGASSRATGIPDRFSGSGSGTDFTLTISRLEPEDFAVYYCQQYDNSPSTFGQGTKLEIK |
| binds |  | E88-IgG1 (antibody, V domains shown, human IgG1, human kappa) VH: QMQLVQSGAEVKKPGASVKVSCKVSGHTLTELSMHWVRQAPGKGLEWMGGFDPEDGETIYAQKFQGRVTMTGDTSTDTAYLELSSLRSEDTALYYCATGRYCHKDGCYGFDYWGQGTLVTVSS VL: EIVMTQSPATLSLSPGERATLSCRASQSVSSYLAWYQQKPGQAPRLLIYGASSRATGIPDRFSGSGSGTDFTLTISRLEPEDFAVYYCQQYDSSPHTFGQGTKLEIK |
